Source: article PMC2572732, “Structural Coupling of SH2-Kinase Domains Links Fes and Abl Substrate Recognition and Kinase Activation” (Cell, 2008)

Test system: Fes; GST-cortactin (residues 382–550)
Test: In vivo kinase assay: Fes autophosphorylation and GST-cortactin phosphorylation in transfected HEK293T cells
Assay type: cell-based, human
Conditions: HEK293T cells, anti-pTyr western blot, in words
From the text: To pursue the relevance of the observed interdomain interactions, we studied the effects of mutating residues in the SH2-kinase interface on human Fes activity. To this end, we monitored Fes autophosphorylation and transphosphorylation activity in transfected cells, using cortactin (residues 382–550) fused to GST as an exogenous substrate (Figures 2A and 2B). In an effort to perturb the close interaction between the SH2 and kinase domains, we mutated the conserved glycine residue (G463) located in the tightly packed interface between the SH2 N terminus and the kinase β4/β5 loop to valine (mutant G/V). Introducing this bulky side chain would be expected to sterically hinder alignment of the SH2 and kinase domains, resulting in an altered domain packing. Wild-type (WT) and G/V mutant full-length human Fes, each with an N-terminal Flag epitope, were expressed in HEK293T cells together with GST-cortactin.
Wild-type p130^Gag-Fps and the RX15m and AX9m mutants ([Stone et al., 1984]) were subcloned into the vector pRK5-myc ([Winberg et al., 2000]). Full-length human Fes was cloned into the vector pCMV7.1-3xFlag (Sigma, St. Louis, MO). Site-directed mutagenesis was performed using the QuickChange® II XL Kit (Stratagene, La Jolla, CA) following the manufacturer's directions. A GST-tagged C-terminal fragment of human cortactin (residues 382–550, accession Q14247) was prepared by PCR from cDNA (accession BC008799) and cloned into pEBG vector (gift from C. Duckett, University of Michigan Medical School, Ann Arbor).
HEK293T cells were maintained in Dulbecco's modified Eagle's medium supplemented with 10% (vol/vol) fetal bovine serum, 100 units/ml penicillin G sodium, and 100 μg/ml streptomycin and incubated at 37°C, 5% CO2.
Flag-tagged Fes or Myc-tagged p130^Gag-Fps and mutants thereof were cotransfected with GST-cortactin into HEK293T cells. After 24 hr, cells were lysed with NP-40 cell lysis buffer (50 mM Tris-HCl [pH 7.5], 150 mM NaCl, 1% NP-40, and 1 mM EDTA) that contained 1 mM phenylmethylsulfonyl fluoride, 10 μg/ml leupeptin, 10 μg/ml aprotinin, and 10 μg/ml pepstatin A. Cell lysates, normalized for protein concentration, were used in anti-Flag M2 antibody-agarose (Sigma) or anti-Myc antibody immunoprecipitations or glutathione sepharose affinity precipitations. Associated proteins were resolved using SDS-PAGE and analyzed by western blotting using anti-Flag M2 (Sigma), anti-c-Myc 9E10 (Santa Cruz), HRP-conjugated anti-GST (Santa Cruz), or anti-pTyr 4G10 (Upstate) antibodies.

B1: R/M: Fes with R483 in the SH2 pTyr-binding pocket substituted with methionine (protein, UniProt P07332 1-822, looked up, variant R483M)
Tyrosine-protein kinase …: MGFSSELCSPQGHGVLQQMQEAELRLLEGMRKWMAQRVKSDREYAGLLHHMSLQDSGGQSRAISPDSPISQSWAEITSQTEGLSRLLRQHAEDLNSGPLSKLSLLIRERQQLRKTYSEQWQQLQQELTKTHSQDIEKLKSQYRALARDSAQAKRKYQEASKDKDRDKAKDKYVRSLWKLFAHHNRYVLGVRAAQLHHQHHHQLLLPGLLRSLQDLHEEMACILKEILQEYLEISSLVQDEVVAIHREMAAAAARIQPEAEYQGFLRQYGSAPDVPPCVTFDESLLEEGEPLEPGELQLNELTVESVQHTLTSVTDELAVATEMVFRRQEMVTQLQQELRNEEENTHPRERVQLLGKRQVLQEALQGLQVALCSQAKLQAQQELLQTKLEHLGPGEPPPVLLLQDDRHSTSSSEQEREGGRTPTLEILKSHISGIFRPKFSLPPPLQLIPEVQKPLHEQLWYHGAIPRAEVAELLVHSGDFLVMESQGKQEYVLSVLWDGLPRHFIIQSLDNLYRLEGEGFPSIPLLIDHLLSTQQPLTKKSGVVLHRAVPKDKWVLNHEDLVLGEQIGRGNFGEVFSGRLRADNTLVAVKSCRETLPPDLKAKFLQEARILKQYSHPNIVRLIGVCTQKQPIYIVMELVQGGDFLTFLRTEGARLRVKTLLQMVGDAAAGMEYLESKCCIHRDLAARNCLVTEKNVLKISDFGMSREEADGVYAASGGLRQVPVKWTAPEALNYGRYSSESDVWSFGILLWETFSLGASPYPNLSNQQTREFVEKGGRLPCPELCPDAVFRLMEQCWAYEPGQRPSFSTIYQELQSIRKRHR
Fes autophosphorylation (Flag-Fes): failed to autophosphorylate | transphosphorylation of cortactin (GST-cortactin): significantly reduced ability to transphosphorylate cortactin
